Assay: soluble on expression in E. coli; label from the status in PepcDB or PDB records

Sequence | soluble on expression in E. coli
MRGSHHHHHHTDPALRAPIIQSVERALQILDLFNEQATELKITDISKLMGLSKSTLHSLLKTLQLHGYIDQNPENGKYRLGMKLVERGHFVVGSIDIRQKAKGWLTELSRRTGQTTHLGILDGREGVYIEKIEGKLAAIAYSRIGRRLPVHATAIGKVLIAWLGEAELNALLEGYQYTTFTPATLASREALMSALAQTREQGYALDSEENEQGVRCVAVPVWNHESRVIAALSLSTLTSRVDDAELANFREQLQQAGLALSRALGYPAGLCGR | soluble
MSLTMYADLVLHGGSIATLDDKLEQAQAVAIAAGRIIAVGSDAHCLALAGPGTRRIGLGGACVMPGINDSHCHPDGQAVKAGRWDDVSQVATQQALLARIADFHRRMPAGAWYLGFRFDDTHSGGYPARQALEQAAPGRPVFLLRRDAQVGLASAPALAALLASGLATQVPPHCLDAATGLARGRGVFAFTTHIAAADSLDDYLEGFPTLFAEMGRMGITSVHNALTSALAVQAYRALHGAGRLPVRVGMMLNGRDQRLVDETLAAGLRFGAGDDRLYLLGVEYGSDGSTSGRTAAYYQPYVGEEGGDGRPANRGDVNFSAEDLAAKVGRVMAAGLQAAATGNGDRGIDFALDAFEQGLRAHPGAVPPRIEHCCCAPPAIQQRMAALGVIDSSAAGFAYNLGDAYLRNRPSAEMAWMWPHRDMLDRGVLVCAHSDAPVCERNPFLGMWSMVTRKTASGASLGAGQAITPLEAMRCYTANPARAEGQAARKGTLSPGKLADLIVLDRDPCAVDPDEIRHTQVLATLVGGQATYRAAGAPSWADELPMREEGHHHHHH | soluble
MATQMRLTDTNLLEVLNSEEYSGVLKEFREQRYSKKAILYTPNTERNLVFLVKSGRVRVYLAYEDKEFTLAILEAGDIFCTHTRAFIQAMEDTTILYTDIRNFQNIVVEFPAFSLNMVKVLGDLLKLLLTIINGLVFKDARLRLAEFLVQAAMDTGLKVPQGIKLELGLNTEEIALMLGTTRQTVSVLLNDFKKMGILERVNQRTLLLKDLQKLKEFSSGV | soluble
MTVTLTCRFKLELSKDQKQQFLDIATAYTNAVNYVLEQNLKDKSTNVKKLHRLYYKTIREDFDLPAQMAINVNRDVSAMYKTLWAQFKELKRRKPDSKAVKKFWDKPPKRKSLIVKYTYNRTASFKKINGEWHASLSTLQGRIKWIPMKGWSKHFEYLKSCKIGDPILTYDKSSKTFFLLVPVTLEVQEHQPKEIVGVDVGERHIAAVASTKGTRYLIDLPEEFKQRKQHYQRLRSELMSKGTRSAKRKLARISRREKRFTENVLHIIAKKLTTSHPGARFVLEDLTQIRANRITYRGKDKEARRQSEQWPFASLQQKIEYKAKLYYGVQSEKVDPSYTSQTCPRCGHVSKENRPDHGERFVCQSCGYEEHADIVGAINIALRVLAKDQQVNLEKLLGAVVSRPDAPRLG | not soluble
MKKTLTVTLSSIAAFIAINTAANAQESETSQLDTYATGDVITNQSNLGIYIVKPGDSLYKIALEHNLSLEELYALNPGVEPLIFPGDEIVVSETAFEQFNNTNTFVNYETNYIPVGYNNVSTDTSNTTYDNYDSESTDTYSVSNAYDGLRSVSNSGNLYTTGQCTYYAFDRRAELGKPIGSLWGNASNWAYSANQAGFNVDHTPEVGAVFQSGPGQNGAGAYGHVGVVESINSNGSVTVSEMNWNGGVNVKSYRTISNPNSYNYIHLEHHHHHH | not soluble
MAHHHHHHMVVSTGEFDHPPFQFRQRHTFNTTPLHDANRFGGRTAYLREIGPVNIKKQGRRFKKDPRTVQFNVDVWCAQQTLRKRWKQRDWEVIEIPFRLVPREQQRVIPELYTDIPQMTDPARNDFSNIRNKVYDREELQGVLFPAAGTMLYPPLQRVDKQAMTLDKYL | not soluble
MGSDKIHHHHHHMAINYGVFTISLDFEMYWGVRDKRAISDYAVNLEGIRPAIAGMLDIFTEFNVHATWATVGFLFFRNSEHLSANLPKAIPTYTDINLSPYEYIKNKKLDDRYHFAPDLIQKIISTSGQEVASHTFSHYYCLEDGQTIDQFESDLALAVDTASRLGYKLSSLVFPRNQWNSEYLSVLNKYNIKSFRGNELNWMNSASGQEGQSYFKRAARLLDSYINISGFNTHDISTCLENKPFNFPSSRFLRPYNKKLSFFDCLKLRRIKKAMTHAAKNNELFHLWWHPHNFGAETSKNLDMLREILDHYQYLNKNFGMRSLNMEELSFLEKAYD | not soluble
PMVTAATSLRRALENPDSFIVAPGVYDGLSARVALSAGFDALYMTGAGTAASVHGQADLGICTLNDMRANAEMISNISPSTPVIADADTGYGGPIMVARTTEQYSRSGVAAFHIEDQVQTKRCGHLAGKILVDTDTYVTRIRAAVQARQRIGSDIVVIARTDSLQTHGYEESVARLRAARDAGADVGFLEGITSREMARQVIQDLAGWPLLLNMVEHGATPSISAAEAKEMGFRIIIFPFAALGPAVAAMREAMEKLKRDGIPGLDKEMTPQMLFRVCGLDESMKVDAQAGGAAFDGGVDLK | soluble
MGKATYTVTVTNNSNGVSVDYETETPMTLLVPEVAAEVIKDLVNTVRSYDTENEHDVCGW | soluble
MAHHHHHHMRAESSGSESQSRQSERTCGVSPGGPGGPGASPSIVVAVRKRPRIPGREDDENDVVRCGENGGPSVTVYEPRTKLDLTPIIEPSSFSYDHVFGEACTNEEVYRGCCQPLLQNVREGGGAVIFAFGQTGSGKTHTMLGTGERPGLYSLAVTELLTMTEHSTMTASFYEAYGAKLYDLLNDRAEVKMLQDEYQNVHIVGITEQIVSSVDDVNALMMRGQQLRAIGTTHANDRSSRSHAVLEIKLKLADSSSESQLGRITFVDLAGSERASDTAETDAKTRREGAEINKSLLALKECIRAMSMRKRHIPFRGSKLTQILRESFVGRCKTCVIAAISPCQGHCEDTLNTLRYADRIKELKGPANPHNGVKPIPCKTCGQPIFIGDRHVCKRQLVVCPHCRQDVDKQELDTHMSECKESPMRCQYCNERMLRSESVGHSRRCARAPIRCGACGATVPRQLIDRHAQQECAEAKVKCRYCGCVQSRQLLAAHEQNCDAAKVACPHCLQFMRKRRLDGHVATCVRNLSRAMHTPRSTALNIIASTSMETSQTLASSSSSIGAQQSIPKSATAQTAASSRASSSHNRNVAAEPAGGQVDLVAADEGTGPLNFTRAHSSRRSSAQLASGVSLANQSQSNRAPGAGGRWNAGALGADEVSAACDSDCGSVVCPYSRYGCPVKVTRLNVAAHLKESMQQHLELVTTYADRVDEQNMQLRRLVIHETDTLSSRVTMERLDK | not soluble
MGSDKIHHHHHHMNSNQLAFTIPISREMINIANKLSQQQRNEQKTREVYLNTLALLAVEFFCQCMEIETEFSKSYGLDSVVLSLMNTASIFIKDKGLLECRPVLPREDFCEIPAEILSERIGYMVVEIDELDRQAKIVGFVESVSNEKLALSKLGSLQDFLIYLQKLQKIENYDPSNPDISEIARNQLNESIVKLSKWFKGLLDSGWEYELAIAKDIPNVLAVPKDISPVNVTDKEEVGGARIIHLMHLSEPVLLILRQTRLSPDEIEIILRLYPASESIFLLDGIKMTLLDEKDNPIRQLEKQAKASNWLQLRFKGNVGDKFSLKISFRGDSVITKFII | not soluble
MSRNVGVLGQMSEINDHLYLSGAGVLKPDKIKQRKINMIVNATTEEPSTYMQGVDTMKIRIEDHPYARLNEHFDVVADKIRNVKERGGKTLVHCMAGVSRSASLVMIYLVKHEHMTLRQAYHYVKAARPIIRPNVGFWKQMVDYEKRLRGTASVKMVQTPECDMPIPDVYADDIRRMQINREISRHSLPSAQSSASKQRAFSASTYRPSVSSASSLATSSLRRAYSPSSLPASSLALTTSYSLFSPAPTRKPRQSLFSMYSTSPRHNFFSAF | not soluble
MAHHHHHHMRVALIFGITGQDGSYLSELLLEKNYHVHGVIRRCSSFNTKRIDHIFDKLILHYGDLLDSSNICSLICEIKPNEIYNLAAQSHVKVSFEMPEYTTEATALGTLRILEGIRISKVKNIKFYNASTSELFGKVQCPIQNENTPFYPVSPYAIAKLYAHYITINYRESYNMFCINGILFNHESPRRGETFVTRKITRGIAKIQKKLETSIILGNIDTYRDWGHAKDYVYAMYLMLQQNEADDFVICSNEQHSVREFCEISFSFVNIHIKWIGKGIQEIGVDQNNNVLIKKHEKYFRNCEVNTLLGDCSKAKNILKWEPTYTFTQLVYEMLKCDMQDYNLSMDDYDTCMKKYDTYKMGKKQ | not soluble
MDIETIVNEFETRAGTLLRYYTGLLERSKVQPCCFKLYNDPFDMVYVMMNSKLFSHVYIKDCKVRQSFELASPKHTEGLIRSIEGHYVGYELHDGKQLSISDMMASQLFEDEYFMYGLQTYAESNNSDVFKCLENGFDTDTLEGIQSSNTDVIANIEMLYQLATGINEPVPELVEGLKLVTEFVQDENATQEDYKALERKLNDLKASYYSLSKLAAALEHHHHHH | soluble
MSVLQRIVSRRTQLSESGRQIGDWVLANAAQAAAMTSQDLAAWANVSQSSIVKFTQRLGFKGYSEFKLALTEELGRKQVMVNQPLHSNILADDPVAVIAQKLVQTKTEAMFHTTNALRLDEFSEAISWIQQAVRVQIIGIGGSALVAKDLAFKLLKLGITALTEQDSHVQIATARTLHSQDVLIAISFSGEKREILIAAEAAKQQGAKVIALTTPNKNRLREIADLALDTIADETQHRSSAIASRTAQNVLTDLIFLTLTQQRETSARQLIDDISSDIRQMR | not soluble
MSLNIPDEGFFTLLTQGMRNRTVETLQRALYHTLRDAILQGTLTARCRLPGSRVMAERLHLSRNTVNAALEQLALEGYLTRSRQGTQVAPLASCRQEAGQMPPVVLPERLQRLPAAMRRDSPTLAFTPGMPAVNYFPLPLWRRLMDNVLREDGSALLGYGEAAGDPLLREAIARHLALSRGIRCDIRQIVITEGALEGVNLCASLLTNPGDSVWLEEPGYLGAWSGFQRAGLRVRGMAVDDEGMCIANGVAEPPRLIFTSPSHQYPCGSIMSAGRRLALVEYARRHGAWIVEDDYDSEFRHSGEPIPAMLGMVPDAPVVYLGTFSKTLFPALRIGFMVMPPALADAAQDAIGALLRGGHRAEQRALASFIEKGHYARHLAAMRRLYRKRQQQLREALAQEITVPCDVLGGGGGMHLTVAMEGVNDRTLAQQARQFQLAPAALSHFYLDPQRARSGLVLGYGNTSASRYLPALRTLNRLIAQHRRAEGHHHHHH | not soluble
DIGCYTLGNAPPLELIDTCLCMGAGISIAGGISRTTKNSKNVAFIGDSTFFHSGIPAVINAVYNNADVTIAVLDNRTTAMTGHQPHPGTGKTALGKPTKLIDIEGILKSCGVEFVKTVSADDFSACKEISKEVIEYNGPSAVVFRGNCVSLVKSDKKYVIDK | not soluble
MGSDKIHHHHHHMAVTDKERKLAATLSDPVLWGQAYLYNRDGSGRDYWPHQVEDLRCPAKNIIHLDGRDVGKSIVLSTDALHYAFTTRGGQGLVAAPHQGHLDTIIEEIEFQLDTNPDLMNSIALTKYGKPKIHRKPYFRLEFTNGSVLYFRPAGAYGDAFRSLHVGRVWVDEGAWLTERAWKALRQCLKAGGTLRIYSTPNGLRDTTYYRLTSSEQFHVFRWPSWLNPLWTEDREAELLEFYGGRDSSGWQHEVAGEHGKPSYGAFNVEQFNLCRQDLLEYQKIVITDSELRDCDTEEAAHDRLEMLLNLTPRSGQFWVGGDLGYTNDPTEIVVFQEMEVGERTLLKMILRVHLEHVSYPHIAQIIALLERYYTPAGIGVDNGGNGLAVVQELLTLDKYKGLELEGRLKGYDFGGMTRLAVRDGKEIKKRTKELMTSLINGALQRKQLIFPSDDLEVEDQFTTHTYTLRDGKIIYSKGNDHIIDAVRCAMLIREEGNLDPVGEEVVSLKPVLTNPVFI | not soluble
MGSDKIHHHHHHMSVLKGSQNVTICNANGLKLAARLELPDIPPRGMAMIAPAFGCTKEILIASRTARRLLQYGIGSLRLDFTGIGQSEGDFSMTNLDTQVEDFVSAADWLRQHVAAPNILIGHSFGGLVALNACHSIPESRACVTIATPESPAHVLEIIGEDKTREIMQGGATSIEVNRQPYVLRRQFADHARQFRLHDTMQRLRVPVLIMHSPRDEMVPMRHAHAIFETARHPKSLLAIEDADHMVSERPAAEFVASTIGLWGMRYLTDG | not soluble

Source: the DeepSol protein solubility set
